B1: GFP-RhoBTB1 [human] / myc-ROCK1^1–727 [human] (parent complex)
chain 1: MDADMDYERPNVETIKCVVVGDNAVGKTRLICARACNTTLTQYQLLATHVPTVWAIDQYRVCQEVLERSRDVVDEVSVSLRLWDTFGDHHKDRRFAYGRSDVVVLCFSIANPNSLNHVKSMWYPEIKHFCPRTPVILVGCQLDLRYADLEAVNRARRPLARPIKRGDILPPEKGREVAKELGLPYYETSVFDQFGIKDVFDNAIRAALISRRHLQFWKSHLKKVQKPLLQAPFLPPKAPPPVIKIPECPSMGTNEAACLLDNPLCADVLFILQDQEHIFAHRIYLATSSSKFYDLFLMECEESPNGSEGACEKEKQSRDFQGRILSVDPEEEREEGPPRIPQADQWKSSNKSLVEALGLEAEGAVPETQTLTGWSKGFIGMHREMQVNPISKRMGPMTVVRMDASVQPGPFRTLLQFLYTGQLDEKEKDLVGLAQIAEVLEMFDLRMMVENIMNKEAFMNQEITKAFHVRKANRIKECLSKGTFSDVTFKLDDGAISAHKPLLICSCEWMAAMFGGSFVESANSEVYLPNINKISMQAVLDYLYTKQLSPNLDLDPLELIALANRFCLPHLVALAEQHAVQELTKAATSGVGIDGEVLSYLELAQFHNAHQLAAWCLHHICTNYNSVCSKFRKEIKSKSADNQEYFERHRWPPVWYLKEEDHYQRVKREREKEDIALNKHRSRRKWCFWNSSPAVA
chain 2: MSTGDSFETRFEKMDNLLRDPKSEVNSDCLLDGLDALVYDLDFPALRKNKNIDNFLSRYKDTINKIRDLRMKAEDYEVVKVIGRGAFGEVQLVRHKSTRKVYAMKLLSKFEMIKRSDSAFFWEERDIMAFANSPWVVQLFYAFQDDRYLYMVMEYMPGGDLVNLMSNYDVPEKWARFYTAEVVLALDAIHSMGFIHRDVKPDNMLLDKSGHLKLADFGTCMKMNKEGMVRCDTAVGTPDYISPEVLKSQGGDGYYGRECDWWSVGVFLYEMLVGDTPFYADSLVGTYSKIMNHKNSLTFPDDNDISKEAKNLICAFLTDREVRLGRNGVEEIKRHLFFKNDQWAWETLRDTVAPVVPDLSSDIDTSNFDDLEEDKGEEETFPIPKAFVGNQLPFVGFTYYSNRRYLSSANPNDNRTSSNADKSLQESLQKTIYKLEEQLHNEMQLKDEMEQKCRTSNIKLDKIMKELDEEGNQRRNLESTVSQIEKEKMLLQHRINEYQRKAEQENEKRRNVENEVSTLKDQLEDLKKVSQNSQLANEKLSQLQKQLEEANDLLRTESDTAVRLRKSHTEMSKSISQLESLNRELQERNRILENSKSQTDKDYYQLQAILEAERRDRGHDSEMIGDLQARITSLQEEVKHLKHNLEKVEGERKEAQDMLNHSEKEKNNLEIDLNYKLKSLQQRLEQEVNEHKVTKARLTDKHQSIEEAKSVAMCEMEKKLKEEREAR

Variants of: B1
Assay: co-immunoprecipitation (GFP-trap) with band density quantification; COS7 cells, 24 h after transfection; five independent experiments; parent: 0.52; read off a plot

Row | response | Variant
1 | ~0.63 relative value myc IP/GFP IP | chain 1 D198A
2 | ~0.48 relative value myc IP/GFP IP | chain 1 K197A
3 | ~1.4 relative value myc IP/GFP IP | chain 1 E64A, chain 1 K197A

Variants of: B1
Assay: co-immunoprecipitation (GFP-trap) with band density quantification; COS7 cells, 24 h after transfection; three independent experiments; parent: 1.1; read off a plot

Row | response | Variant
4 | ~1.2 relative value myc IP/GFP IP | chain 1 E64A, chain 1 K197A, chain 1 D198A
5 | ~2 relative value myc IP/GFP IP | chain 1 E64A, chain 1 K197A
6 | ~1.5 relative value myc IP/GFP IP | chain 1 E64A
7 | ~1.1 relative value myc IP/GFP IP | chain 1 R60A, chain 1 C62A, chain 1 E64A

— publication PMC6744581 (2019)
